Assay results: paper PMC10786891, “Massively parallel profiling of RNA-targeting CRISPR-Cas13d”

T1: EsCas13d, nuclease-dead (Eubacterium siraeum, UniProt B0MS50, R295A;H300A;R849A;H854A)
T1 sequence: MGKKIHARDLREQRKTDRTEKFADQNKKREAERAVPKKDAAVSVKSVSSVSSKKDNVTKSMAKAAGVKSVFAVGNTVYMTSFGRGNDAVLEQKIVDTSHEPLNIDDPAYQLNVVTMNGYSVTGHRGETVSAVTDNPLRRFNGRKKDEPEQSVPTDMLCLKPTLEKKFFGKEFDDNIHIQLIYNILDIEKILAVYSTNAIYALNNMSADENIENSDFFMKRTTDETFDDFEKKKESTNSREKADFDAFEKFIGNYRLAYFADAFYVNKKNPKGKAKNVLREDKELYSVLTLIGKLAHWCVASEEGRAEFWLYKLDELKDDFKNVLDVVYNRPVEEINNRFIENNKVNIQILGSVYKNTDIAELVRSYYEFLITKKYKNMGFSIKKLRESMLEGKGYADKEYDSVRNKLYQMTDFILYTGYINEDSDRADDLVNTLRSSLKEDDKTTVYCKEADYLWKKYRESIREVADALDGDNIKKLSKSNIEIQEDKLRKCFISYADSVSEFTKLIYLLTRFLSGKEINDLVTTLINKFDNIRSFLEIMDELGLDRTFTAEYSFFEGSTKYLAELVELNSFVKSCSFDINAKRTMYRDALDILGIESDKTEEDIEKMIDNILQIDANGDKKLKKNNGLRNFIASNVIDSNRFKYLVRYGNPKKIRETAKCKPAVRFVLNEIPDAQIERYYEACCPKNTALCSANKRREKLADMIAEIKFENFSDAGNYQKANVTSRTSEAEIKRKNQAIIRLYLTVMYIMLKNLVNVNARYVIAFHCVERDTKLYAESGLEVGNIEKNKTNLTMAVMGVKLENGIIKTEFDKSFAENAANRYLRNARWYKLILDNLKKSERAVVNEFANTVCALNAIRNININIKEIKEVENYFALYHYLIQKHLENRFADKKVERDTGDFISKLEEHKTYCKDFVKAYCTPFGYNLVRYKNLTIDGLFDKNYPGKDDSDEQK

B1: target 3 G4C,A12C (mixed)
RNA 1: CACCCGUGCAAAAUUGCAGGGGUCUAAAACGACCUGAAUAUUUCAGAUCAAA
RNA 2: GGGAAUGGAUCCACAUCUACGAAUUCGUUUUUGAUCUGACAUAUUCACGUCUGCAGAUCGGAAGAGCACACGU
B2: target 3 insA 3' of 22,insC 3' of 5 (mixed)
RNA 1: CACCCGUGCAAAAUUGCAGGGGUCUAAAACGACCUGAAUAUUUCAGAUCAAA
RNA 2: GGGAAUGGAUCCACAUCUACGAAUUCGUUUAUUGAUCUGAAAUAUUCACGGUCUGCAGAUCGGAAGAGCACACGU
B3: target 3 insA 3' of 21,insU 3' of 4 (mixed)
RNA 1: CACCCGUGCAAAAUUGCAGGGGUCUAAAACGACCUGAAUAUUUCAGAUCAAA
RNA 2: GGGAAUGGAUCCACAUCUACGAAUUCGUUUUAUGAUCUGAAAUAUUCAGUGUCUGCAGAUCGGAAGAGCACACGU
B4: target 3 insC 3' of 5,insA 3' of 4 (mixed)
RNA 1: CACCCGUGCAAAAUUGCAGGGGUCUAAAACGACCUGAAUAUUUCAGAUCAAA
RNA 2: GGGAAUGGAUCCACAUCUACGAAUUCGUUUUUGAUCUGAAAUAUUCACGAGUCUGCAGAUCGGAAGAGCACACGU
B5: target 3 insA 3' of 21 (mixed)
RNA 1: CACCCGUGCAAAAUUGCAGGGGUCUAAAACGACCUGAAUAUUUCAGAUCAAA
RNA 2: GGGAAUGGAUCCACAUCUACGAAUUCGUUUUAUGAUCUGAAAUAUUCAGGUCUGCAGAUCGGAAGAGCACACGU
B6: target 3 complement block 5-8 (mixed)
RNA 1: CACCCGUGCAAAAUUGCAGGGGUCUAAAACGACCUGAAUAUUUCAGAUCAAA
RNA 2: GGGAAUGGAUCCACAUCUACGAAUUCGUUUUUGAUCUGAAAUAAAGUGGUCUGCAGAUCGGAAGAGCACACGU
B7: target 3 insG 3' of 6,insA 3' of 4 (mixed)
RNA 1: CACCCGUGCAAAAUUGCAGGGGUCUAAAACGACCUGAAUAUUUCAGAUCAAA
RNA 2: GGGAAUGGAUCCACAUCUACGAAUUCGUUUUUGAUCUGAAAUAUUCGAGAGUCUGCAGAUCGGAAGAGCACACGU
B8: target 3 insC 3' of 9,insG 3' of 8 (mixed)
RNA 1: CACCCGUGCAAAAUUGCAGGGGUCUAAAACGACCUGAAUAUUUCAGAUCAAA
RNA 2: GGGAAUGGAUCCACAUCUACGAAUUCGUUUUUGAUCUGAAAUACUGUCAGGUCUGCAGAUCGGAAGAGCACACGU
B9: target 3 insU 3' of 22,insC 3' of 9 (mixed)
RNA 1: CACCCGUGCAAAAUUGCAGGGGUCUAAAACGACCUGAAUAUUUCAGAUCAAA
RNA 2: GGGAAUGGAUCCACAUCUACGAAUUCGUUUUUUGAUCUGAAAUACUUCAGGUCUGCAGAUCGGAAGAGCACACGU
B10: target 3 insU 3' of 4,insC 3' of 4 (mixed)
RNA 1: CACCCGUGCAAAAUUGCAGGGGUCUAAAACGACCUGAAUAUUUCAGAUCAAA
RNA 2: GGGAAUGGAUCCACAUCUACGAAUUCGUUUUUGAUCUGAAAUAUUCAGUCGUCUGCAGAUCGGAAGAGCACACGU
B11: target 1 A1U,U8A (mixed)
RNA 1: CACCCGUGCAAAAAUGCAGGGGUCUAAAACUGAGCGGAUAACCUCUCUAUGG
RNA 2: GGGAAUGGAUCCACAUCUACGAAUUCGUACCAUAGAGAGGUUAACCGCUCUCCGAGAUCGGAAGAGCACACGU
B12: target 3 insA 3' of 7,insU 3' of 5 (mixed)
RNA 1: CACCCGUGCAAAAUUGCAGGGGUCUAAAACGACCUGAAUAUUUCAGAUCAAA
RNA 2: GGGAAUGGAUCCACAUCUACGAAUUCGUUUUUGAUCUGAAAUAUUACAUGGUCUGCAGAUCGGAAGAGCACACGU
B13: target 3 insA 3' of 7,insC 3' of 7 (mixed)
RNA 1: CACCCGUGCAAAAUUGCAGGGGUCUAAAACGACCUGAAUAUUUCAGAUCAAA
RNA 2: GGGAAUGGAUCCACAUCUACGAAUUCGUUUUUGAUCUGAAAUAUUACCAGGUCUGCAGAUCGGAAGAGCACACGU
B14: target 3 insA 3' of 7,insA 3' of 2 (mixed)
RNA 1: CACCCGUGCAAAAUUGCAGGGGUCUAAAACGACCUGAAUAUUUCAGAUCAAA
RNA 2: GGGAAUGGAUCCACAUCUACGAAUUCGUUUUUGAUCUGAAAUAUUACAGGUACUGCAGAUCGGAAGAGCACACGU
B15: target 3 insC 3' of 8,insC 3' of 7 (mixed)
RNA 1: CACCCGUGCAAAAUUGCAGGGGUCUAAAACGACCUGAAUAUUUCAGAUCAAA
RNA 2: GGGAAUGGAUCCACAUCUACGAAUUCGUUUUUGAUCUGAAAUAUCUCCAGGUCUGCAGAUCGGAAGAGCACACGU
B16: target 3 A12G,U22C (mixed)
RNA 1: CACCCGUGCAAAAUUGCAGGGGUCUAAAACGACCUGAAUAUUUCAGAUCAAA
RNA 2: GGGAAUGGAUCCACAUCUACGAAUUCGUUCUUGAUCUGAGAUAUUCAGGUCUGCAGAUCGGAAGAGCACACGU
B17: target 3 insC 3' of 7,insA 3' of 4 (mixed)
RNA 1: CACCCGUGCAAAAUUGCAGGGGUCUAAAACGACCUGAAUAUUUCAGAUCAAA
RNA 2: GGGAAUGGAUCCACAUCUACGAAUUCGUUUUUGAUCUGAAAUAUUCCAGAGUCUGCAGAUCGGAAGAGCACACGU
B18: target 3 U2G,U21C (mixed)
RNA 1: CACCCGUGCAAAAUUGCAGGGGUCUAAAACGACCUGAAUAUUUCAGAUCAAA
RNA 2: GGGAAUGGAUCCACAUCUACGAAUUCGUUUCUGAUCUGAAAUAUUCAGGGCUGCAGAUCGGAAGAGCACACGU
B19: target 3 insU 3' of 14,insU 3' of 5 (mixed)
RNA 1: CACCCGUGCAAAAUUGCAGGGGUCUAAAACGACCUGAAUAUUUCAGAUCAAA
RNA 2: GGGAAUGGAUCCACAUCUACGAAUUCGUUUUUGAUCUGUAAAUAUUCAUGGUCUGCAGAUCGGAAGAGCACACGU
B20: target 3 insC 3' of 19,insU 3' of 5 (mixed)
RNA 1: CACCCGUGCAAAAUUGCAGGGGUCUAAAACGACCUGAAUAUUUCAGAUCAAA
RNA 2: GGGAAUGGAUCCACAUCUACGAAUUCGUUUUUGCAUCUGAAAUAUUCAUGGUCUGCAGAUCGGAAGAGCACACGU
B21: target 3 U8G (mixed)
RNA 1: CACCCGUGCAAAAUUGCAGGGGUCUAAAACGACCUGAAUAUUUCAGAUCAAA
RNA 2: GGGAAUGGAUCCACAUCUACGAAUUCGUUUUUGAUCUGAAAUAGUCAGGUCUGCAGAUCGGAAGAGCACACGU
B22: target 1 A9G,A18U (mixed)
RNA 1: CACCCGUGCAAAAAUGCAGGGGUCUAAAACUGAGCGGAUAACCUCUCUAUGG
RNA 2: GGGAAUGGAUCCACAUCUACGAAUUCGUACCAUUGAGAGGUUGUCCGCUCACCGAGAUCGGAAGAGCACACGU
B23: target 3 insU 3' of 14,insA 3' of 3 (mixed)
RNA 1: CACCCGUGCAAAAUUGCAGGGGUCUAAAACGACCUGAAUAUUUCAGAUCAAA
RNA 2: GGGAAUGGAUCCACAUCUACGAAUUCGUUUUUGAUCUGUAAAUAUUCAGGAUCUGCAGAUCGGAAGAGCACACGU
B24: target 3 U2G,A12G (mixed)
RNA 1: CACCCGUGCAAAAUUGCAGGGGUCUAAAACGACCUGAAUAUUUCAGAUCAAA
RNA 2: GGGAAUGGAUCCACAUCUACGAAUUCGUUUUUGAUCUGAGAUAUUCAGGGCUGCAGAUCGGAAGAGCACACGU
B25: target 3 C6A (mixed)
RNA 1: CACCCGUGCAAAAUUGCAGGGGUCUAAAACGACCUGAAUAUUUCAGAUCAAA
RNA 2: GGGAAUGGAUCCACAUCUACGAAUUCGUUUUUGAUCUGAAAUAUUAAGGUCUGCAGAUCGGAAGAGCACACGU
B26: target 3 C1U,U22A (mixed)
RNA 1: CACCCGUGCAAAAUUGCAGGGGUCUAAAACGACCUGAAUAUUUCAGAUCAAA
RNA 2: GGGAAUGGAUCCACAUCUACGAAUUCGUUAUUGAUCUGAAAUAUUCAGGUUUGCAGAUCGGAAGAGCACACGU
B27: target 3 C1G,C6A (mixed)
RNA 1: CACCCGUGCAAAAUUGCAGGGGUCUAAAACGACCUGAAUAUUUCAGAUCAAA
RNA 2: GGGAAUGGAUCCACAUCUACGAAUUCGUUUUUGAUCUGAAAUAUUAAGGUGUGCAGAUCGGAAGAGCACACGU
B28: target 3 U2A,G3A (mixed)
RNA 1: CACCCGUGCAAAAUUGCAGGGGUCUAAAACGACCUGAAUAUUUCAGAUCAAA
RNA 2: GGGAAUGGAUCCACAUCUACGAAUUCGUUUUUGAUCUGAAAUAUUCAGAACUGCAGAUCGGAAGAGCACACGU

target: T1, EsCas13d, nuclease-dead; assay: crRNA (strand 1, pre-loaded); Mg2+; 40 mM Tris-HCl pH 7.5, 150 mM NaCl, 6 mM MgCl2, 1 mM DTT, 0.1% Tween-20, 0.2 mg/ml BSA; 25 C; 10 min per concentration, then washed; details: tags: His6-TwinStrep-SUMO cleaved; N-terminal SNAP kept (SNAP-Surface 488); label: 3' end held by stalled T7 RNA polymerase

Q: With B1 as the binder, how does the Kd read?
A: Its Kd is 95 ± 30 nM.

Q: With B2 as the binder, how does the Kd read?
A: Its Kd is 24.9 ± 3.35 nM.

Q: Which Kd does the source give for B3 here?
A: Its Kd is 11.9 ± 2.1 nM.

Q: Which Kd does the source give for B4 here?
A: The Kd was 9.8 ± 0.9 nM.

Q: Which Kd does the source give for B5 here?
A: The Kd was 33.5 ± 4.5 nM.

Q: How did the Kd turn out when B6 was run?
A: Its Kd is 60.5 ± 6 nM.

Q: B7 was tested. Which Kd did it give?
A: The Kd was 12.3 ± 1.1 nM.

Q: B8 was tested. Which Kd did it give?
A: The Kd was 82.5 ± 12.5 nM.

Q: Which Kd does the source give for B9 here?
A: The Kd was 82.5 ± 21.5 nM.

Q: Which Kd does the source give for B10 here?
A: Its Kd is 19.5 ± 2.5 nM.

Q: Which Kd does the source give for B11 here?
A: Its Kd is 26.7 ± 1.3 nM.

Q: For B12, which Kd is on record?
A: Its Kd is 15.7 ± 1.3 nM.

Q: For B13, which Kd is on record?
A: Its Kd is 48 ± 5.5 nM.

Q: Which Kd does the source give for B14 here?
A: The Kd was 51 ± 8 nM.

Q: How did the Kd turn out when B15 was run?
A: Its Kd is 77.5 ± 16 nM.

Q: Which Kd does the source give for B16 here?
A: Its Kd is 40.5 ± 8.5 nM.

Q: How did the Kd turn out when B17 was run?
A: The Kd was 97 ± 35 nM.

Q: B18 was tested. Which Kd did it give?
A: The Kd was 60 ± 24.5 nM.

Q: Which Kd does the source give for B19 here?
A: The Kd was 83.5 ± 33.5 nM.

Q: With B20 as the binder, how does the Kd read?
A: Its Kd is 130 ± 40 nM.

Q: For B21, which Kd is on record?
A: The Kd was 45 ± 6 nM.

Q: Which Kd does the source give for B22 here?
A: Its Kd is 39.7 ± 3.1 nM.

Q: For B23, which Kd is on record?
A: Its Kd is roughly 100 nM.

Q: How did the Kd turn out when B24 was run?
A: Its Kd is 33.5 ± 6 nM.

Q: B25 was tested. Which Kd did it give?
A: The Kd was 36.2 ± 4.1 nM.

Q: How did the Kd turn out when B26 was run?
A: Its Kd is 25.9 ± 5.5 nM.

Q: With B27 as the binder, how does the Kd read?
A: Its Kd is 30.5 ± 5 nM.

Q: Which Kd does the source give for B28 here?
A: The Kd was 38.5 ± 4 nM.
